Assay results reported in US20200354728.
pKd: −log10 of the molar value.

Legend:
[1] = tested on: MmsR (LysR-type transcriptional regulator) (Pseudomonas denitrificans); assay: cell_activity; details: GFP reporter; 25 mM 3-HP; 2.6 to 90.2 x10^3 AU/OD
[2] = tested on: MmsR (LysR-type transcriptional regulator) (Pseudomonas denitrificans); assay: EMSA; details: per monomeric MmsR
[3] = tested on: HpdR (LysR-type transcriptional regulator, 304 aa) (Pseudomonas denitrificans); assay: cell_activity; details: hpdH mRNA by 3-HP in wild type; 1.20 in hpdR deletion; 60.5 on complementation

## CCTCGAATGTGCAAAAACGCAGACCATACTTGCACATCACCGCATTGAGTACATCAAAAATGCACTGTTAGGATCGATCCAGACAACAAAAAAGCCACAGGCTGGGAGAATCCCG (double strand) [BS_wt (PmmsA reporter)]
[1]
  activity (fold induction): 34.6

## GTCAGCCTCAGCGCACCTCGAATGTGCAAAAACGCAGACCACTTGCACATCACCGCATTGAGTACATCAAAAATCACTGTTAGGATCGATCCAGACAACAAAAAAGCCACAGGCTGGGAGAATCCCG (double strand) [F12 (PmmsA, intact O1 and O2)]
[2]; no 3-HP, 0.4 nM DNA
  pKd: 7.97
[2]; with 3-HP (25 mM), 0.4 nM DNA
  pKd: 8.27

## GTCAGCCTCAGCGCACCTCGAATGTGCAAAAACGCAGACCATACTTGCACATCACCGCATTGAGTACATCAATCCTTGCTTGTTAGGATCGCGCCCAGGCACAAAAAAGCCACAGGCTGGGAGAATCCCG (double strand) [F12M (O2 mutated)]
[2]; no 3-HP
  pKd: 7.73
[2]; with 3-HP (25 mM)
  pKd: 7.70

## GTCAGCCTCAGCGCACCTCGATCCTTGCTAAACGCAGACCATACCGCCCAGGCACCGCATTGAGTACATCAAAAATGCACTGTTAGGATCGATCCAGACAACAAAAAAGCCACAGGCTGGGAGAATCCCG (double strand) [F1M2 (O1 mutated)]
[2]; no 3-HP
  pKd: 7.10
[2]; with 3-HP (25 mM)
  pKd: 6.50

## TGTGGGAGCGGGCGTGCCCGCGAAGAGGCCAGCACAGACTTACCACTGTGCTAAAACGCACAGCGGCTGCGCGAAATCTCGTGTTTCCTCCACGAAATTACTCACTAAGATGGATCGGGACAAGAATAATAATCAGGCCCGAGGTTGCAC (double strand) [PhpdH (PC3) promoter]
[3]
  activity (fold induction): 43
